Assay results published in patent publication US20260235581A1, “METHOD FOR THE SELECTION OF AN ECOBIOLOGICAL COMPOUND CAPABLE OF INCREASING THE SKIN TOLERANCE THRESHOLD” (NAOS INSTITUTE OF LIFE SCIENCE, priority 2023, published 2026).

Test system: TAFA4
Assay: TAFA4 synthesis in normal human keratinocyte culture supernatant, dot blot
Assay type: cell-based
Details: 72 hours of incubation, EGF 30 ng/ml, versus KGM medium control set to 100%, statistically significant
Experimental: Normal human keratinocytes (NHK) have been used in this study. They come from Promocell (Germany). The cells are seeded at 100,000 cells/well in the 24-well plates in KGM. After 24 hours, the cells are incubated with the compound shown in the table below in KBM+P/S medium at 37° C., 5% CO2.
After 72 hours of incubation, the supernatants and protein extracts (obtained from the cell layer) were recovered and stored at −80° C.
After 72 hours of incubation at 37° C., 5% CO2, the supernatants and protein extracts (obtained from the cell layer) are recovered and stored at −80° C.
Before assaying the TAFA4 protein, an evaluation of the toxicity of the compounds is performed using the MTT test. Only the concentrations making it possible to obtain a viability greater than 80% are selected to be quantified by ELISA and dot blot.
The results are expressed as a percentage of TAFA4 expression by standardising the control to 100% (KGM medium control). The data have been obtained from an independent experiment carried out in triplicate.

B1: EGF: epidermal growth factor protein, AF-100-15, Peprotech (protein, UniProt P01133 23-1207, looked up)
Pro-epidermal growth factor: PQHWSCPEGTLAGNGNSTCVGPAPFLIFSHGNSIFRIDTEGTNYEQLVVDAGVSVIMDFHYNEKRIYWVDLERQLLQRVFLNGSRQERVCNIEKNVSGMAINWINEEVIWSNQQEGIITVTDMKGNNSHILLSALKYPANVAVDPVERFIFWSSEVAGSLYRADLDGVGVKALLETSEKITAVSLDVLDKRLFWIQYNREGSNSLICSCDYDGGSVHISKHPTQHNLFAMSLFGDRIFYSTWKMKTIWIANKHTGKDMVRINLHSSFVPLGELKVVHPLAQPKAEDDTWEPEQKLCKLRKGNCSSTVCGQDLQSHLCMCAEGYALSRDRKYCEDVNECAFWNHGCTLGCKNTPGSYYCTCPVGFVLLPDGKRCHQLVSCPRNVSECSHDCVLTSEGPLCFCPEGSVLERDGKTCSGCSSPDNGGCSQLCVPLSPVSWECDCFPGYDLQLDEKSCAASGPQPFLLFANSQDIRHMHFDGTDYGTLLSQQMGMVYALDHDPVENKIYFAHTALKWIERANMDGSQRERLIEEGVDVPEGLAVDWIGRRFYWTDRGKSLIGRSDLNGKRSKIITKENISQPRGIAVHPMAKRLFWTDTGINPRIESSSLQGLGRLVIASSDLIWPSGITIDFLTDKLYWCDAKQSVIEMANLDGSKRRRLTQNDVGHPFAVAVFEDYVWFSDWAMPSVMRVNKRTGKDRVRLQGSMLKPSSLVVVHPLAKPGADPCLYQNGGCEHICKKRLGTAWCSCREGFMKASDGKTCLALDGHQLLAGGEVDLKNQVTPLDILSKTRVSEDNITESQHMLVAEIMVSDQDDCAPVGCSMYARCISEGEDATCQCLKGFAGDGKLCSDIDECEMGVPVCPPASSKCINTEGGYVCRCSEGYQGDGIHCLDIDECQLGEHSCGENASCTNTEGGYTCMCAGRLSEPGLICPDSTPPPHLREDDHHYSVRNSDSECPLSHDGYCLHDGVCMYIEALDKYACNCVVGYIGERCQYRDLKWWELRHAGHGQQQKVIVVAVCVVVLVMLLLLSLWGAHYYRTQKLLSKNPKNPYEESSRDVRSRRPADTEDGMSSCPQPWFVVIKEHQDLKNGGQPVAGEDGQAADGSMQPTSWRQEPQLCGMGTEQGCWIPVSSDKGSCPQVMERSFHMPSYGTQTLEGGVEKPHSLLSANPLWQQRALDPPHQMELTQ
modifications: Pro-epidermal growth factor
notes: epidermal growth factor protein, AF-100-15, Peprotech
effect on the synthesis of TAFA4 (modulation of TAFA4 in the NHK supernatant): inhibits the synthesis of TAFA4
